The target in this test is untagged wild type APOBEC3G (A3G) (human), Q9HC16. As to the kind of experiment: cross-linking; cleared lysate of transfected 293T cells treated with BM(PEO)3 (cysteine-reactive, 18 Å linker), 20°C, 1 h, quenched with DTT; SDS-PAGE and immunoblot for A3G; ~80 kD species; no RNase A, or RNase A after the crosslinking. The conditions noted are these: remark: other sources report otherwise. In general terms: Immunoblotting shows a protein as a band on a membrane.

B1: untagged wild type APOBEC3G (A3G), Q9HC16 1-384 (natural protein)
chain: MKPHFRNTVERMYRDTFSYNFYNRPILSRRNTVWLCYEVKTKGPSRPPLDAKIFRGQVYSELKYHPEMRFFHWFSKWRKLHRDQEYEVTWYISWSPCTKCTRDMATFLAEDPKVTLTIFVARLYYFWDPDYQEALRSLCQKRDGPRATMKIMNYDEFQHCWSKFVYSQRELFEPWNNLPKYYILLHIMLGEILRHSMDPPTFTFNFNNEPWVRGRHETYLCYEVERMHNDTWVLLNQRRGFLCNQAPHKHGFLEGRHAELCFLDVIPFWKLDLDQDYRVTCFTSWSPCFSCAQEMAKFISKNKHVSLCIFTARIYDDQGRCQEGLRTLAEAGAKISIMTYSEFKHCWDTFVDHQGCPFQPWDGLDEHSQDLSGRLRAILQNQEN
On to B1, for which the stoichiometry N (usually the number of molecules, sites or subunits per partner or assembly) was 2.

The values above are taken from PMC2646141.
